Article PMC3364743

Target: T1, CAV1–mCherry (caveolin-1 fused to mCherry), Q03135
T1 chain: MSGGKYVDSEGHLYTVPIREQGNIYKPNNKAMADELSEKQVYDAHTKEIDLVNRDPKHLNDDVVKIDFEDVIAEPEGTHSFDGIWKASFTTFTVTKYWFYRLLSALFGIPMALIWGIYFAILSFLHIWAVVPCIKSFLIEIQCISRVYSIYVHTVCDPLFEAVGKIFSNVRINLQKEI
Test: FRET or BRET
Conditions: remark: other sources report otherwise

B1: CAV1–mCherry (caveolin-1 fused to mCherry), Q03135 1-178 (natural protein)
chain: T1 chain
- FRET efficiency: 48%
